# Experimental data: the nanobody polyreactivity screen of Harvey et al. (2022)
# Assay: yeast display, Sf9 membrane polyspecificity reagent, FACS + sequencing; frameworks hold sequencing errors
# How it was run: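 A synthetic nanobody library was expressed on Saccharomyces cerevisiae BJ5465 by galactose induction for 36–48 hours. The library was stained for 1 hour at 4 °C with 10% biotinylated, detergent-solubilized Sf9 membrane reagent and enriched with streptavidin microbeads before FACS. Low and high (top ~1%) gates were set on anti-HA fluorescence for expression and streptavidin fluorescence for reagent binding, and each polyreactivity label reflects the gate of origin.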
row,Sequence,polyreactivity (PSR sort gate)
1,QFQHVESGGGLVQAGGSLRLSCAASGSTFGLYAMGWYRQAPGKERELVADITWSGGSTYYADSVKGRFTISRDNAKNTVYLQMNSLKPEDTAVYYCAARYPWVYYDFDYWGLGTQVTVSS,low polyreactivity
2,QVQLVESGGGLVQAGGSLRLSCASSGSIFDVNAMGWYRPAPGKERELVAAISQRGTRTYYADSVKGSFTISRDNAKNTVYLQMNSLKPEDTAVYYCNRGGWRQYDSWGQGSQVTVSS,high polyreactivity
3,QVQLVESGGGLVKAGGSLRLSCAASGFIFLQYVMGSYRQAPVKERELVAAITSGGSTYYADSVKARFTISRDNAKNTVYLQMNSLKPEDTAVYFCATDVADNTFDALYGSDYWGQCTQVTVSS,low polyreactivity
4,QVQRVESGGGLVQAGGSLRLSCAASGSTFWFNAMGWYRQAPGKERELVAAITYRGASTNYADSVKGRFTISRDNAKNTVYLQMNSLKPEDTAVYYCATRPTWRPVPDSDVSTYGYWGQGTQVTVSS,low polyreactivity
5,QVQLVESGGGLVQAGGSLRLSCAASGRIFYYYAMGWYRQAPGKEREFVAAIRVTSDSTYYADSVKGRFTISRDNAKNTVYLQMNSLKPEDTAVYYCAADSFYFPYDYWGQGTQVTVSS,high polyreactivity
6,QVQLVESGGGLVQAGGSLRLSCSASGLTFYSNAMGWYRQAPGKERELVASISKRGATTYYADSVKGRFTISRDNAKNTVYLQMNSLKPEDTAVYYCAADLRITSYNSWGQGTQVTVSS,low polyreactivity
7,QVQLVESGGGLVQAGGSLRLSCAASGLIFSVYVMGWYRQAPGKERELVAGITTGGSTKYADSVKGRFTISRDNAKNTVYLQMNSLKPEDTSVYYCAVGKYNYRGSWDYYWGQGTQVTVSS,high polyreactivity
8,QVQLVESGGGLVQAGGSLRLSCAASGSTRYNAKGWYRQAPGNERELVASIRGNAGSTYYADSVKGRFTISRDNAKNTVYLQMNSLKPEDTAVYYCNARYWYRYGGYKPVGGYYWGQGTQVTVSS,high polyreactivity
9,QVQLVESGGGLVQAGGSLRLSCAASGFIFLFNAMGWYRQAPGNESELVAAIYDDGSTYYADSVKGRFTLSLDNAKNTVYLHMNSVKPEDTAVYYCAAPRRGRWIRGYLGQGTQVTVSS,high polyreactivity
10,QVQLVESGGGLVQAGGSLRLSCAASGRIFRRYAMGWYRQAPGKERELVATISRGGSNTSYADSVKGRFTISRDNAKNTVYLQMNSLKPEDSAVYYCAKGSVRYYVGFDYWGQGTQVTVSS,high polyreactivity
11,QVQLVESGGGLVQAGGSLRLSCAASGRIFLFYTMGWYRQAPGKERELVAGITFSGGSTYYADSVKGRFTISRDNAKNTVYLQMNSLKPEDTAVYYCNARRWWQSYDYWGQGTQVTVSS,high polyreactivity
12,QVQLVESGGGLVQAGGSLRLSFAASGSIFASNAMGWYRQAPGKERELVAAISKRGGSTYYVDSVKGRFTISRDNAKNTVYFQMNSLKPEDTAVYYCNTYIRQDAPGQYDYWGQGTQVTVSS,high polyreactivity
13,QVQLVESGGGLVQAGGSLRLSCAASGSIFSTYAIVWYRQAPGKERELVAAISVSGGRTYYADSVKGRFTISRDNAKYTVYLQMNSLKPEDTAVYYCNAYPFWRDYDYWGQGTQVTVSS,high polyreactivity
14,QVQLVESGGGLVQAGGSLRLSCAASGSIFVYYGMGWYRQAPGKEWELVAAMSSGGSSHYADSVKGRFTISRVTAKNSVYLQMNSLKPEDTAVYYCPADGFFWQRSYTRYYYWGQGSQVTVSS,low polyreactivity
15,QVQLVESVVGLVQAGVSLRLSCAASGSIFEQYAMGWYRQAPGKERELVAAISKRGTSTYYADSVKGRFTISRDNAKNTVYLQINSLKPEDNAVYDCAATNRWYYRAAASVYAFGYWGLGTQVTVSS,high polyreactivity
16,QVQLVESGGGLVQAGGSLRLSCAASGSTFRSYAMGWYRQSPGKERELVAAISTRGGSTYYADSVKGRFTISRDNAKNTVYLQMNSLKPEDTAVYYCAVEIVWAYGPTDYYYWGQGTQVTVSS,high polyreactivity
17,QVQIVESGGGLVQAGGSLRLSCAAYGRTFSYYTMGWYRQAPGKERELVARISNRGTNTYYADSEKGRFTISRDNAKNTVYLQMNSLKPEDPAVYYCAKYYSTSIVGYDSWGQGTQVTVSS,low polyreactivity
18,QDQLVESGGGLVQAGGSLRLSCAASGRTFLRYTMGWYRQAPGTETELVADITNGGTRTYYADSVKGRFTFSRDYAKNTVYLQMNRLKPEDTAVYYCGARVRYTANYDYWGQGTQVTVSS,high polyreactivity
19,HVQLVESGGGLVQAGGSLRLSCAASGRIFGRNAMGWYRQAPGKERELVAAISSGGSTYYADSVKGRLTISRDNAKNTVYLQMNSLKPEDTAVYYFAVRGSYYNGGRAFESWGQGTQVTVSS,high polyreactivity
20,QVQLVESGGGLVQAGGSLRLSCAASGFTITYNAMGWYRKAPGKEREFVAAITNNGSTYYADSVKGRFTISRDNAKNTVYLQMNSLKPEDTAVYFCAVDPGYYDEYNYWGQGTQVTVSS,low polyreactivity
21,QVHLVESGGGLVQAGGSLRLSCAASGSIFQPYAMGWYRQAPGTERELVAAISSSGGSTTYADSVKGRFTISRDKAKNTVYLQMNSLKPEDTAVYYCAAESADDMGYWGQGTQVTVSS,low polyreactivity
22,QVQLVESGGGLVEAGGSLRLSCEASGFNFSRYVMGWYRQAPGKERELVAVISYRGGSTYYADSVKGRFTISRDYAKITVYLQMNSLKPEDTAVYYCNADTIPDGEDRYDYWGQGTQVTVSS,low polyreactivity
